From the supplement of paper PMC10567573

B1: ZNF449 (parent)
chain: HKKKSPGEKPHRCPQCGKCFARKS
B2: TCEB3B (parent)
chain: STTALGDKQRKANESKGTRESWDS

Variants of: B1
Test: protein stability index of a GFP-peptide fusion (GPS, HEK-293T) (PSI 1-6); higher = more stable
Settings: c terminus: a fixed tail appended
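Further: lentivirally expressed fusions sorted by FACS into six bins by GFP to DsRed ratio, PSI derived from sequencing read proportions per bin multiplied by bin number.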

Row | Variant | protein stability index
1 | R12S | 4.11
2 | R12Q | 3.19
3 | R12F | 2.56
4 | R12G | 3.1
5 | S24P | 3.76
6 | S24W | 2
7 | S24I | 3.32
8 | S24C | 3.82
9 | R22N | 3.45
10 | R22Q | 3.78
11 | R22V | 3.15
12 | R22S | 2.92
13 | A21I | 2.92
14 | A21L | 3.26
15 | P14T | 3.54
16 | P14F | 2.72
17 | P14R | 3
18 | S5Y | 3.55
19 | S5E | 3.7
20 | E8I | 3.17
21 | E8C | 3.64
22 | E8H | 3.92

Row | Variant | protein stability index
23 | E8N | 2.75
24 | K2I | 2.98
25 | K2Q | 3.36
26 | K2C | 3.21
27 | K3P | 3.12
28 | K3F | 3.19
29 | K3V | 3.51
30 | K3A | 3.73
31 | K3Q | 3.14
32 | K3I | 3.15
33 | K3D | 2.5
34 | K18P | 2.97
35 | C19A | 3.36
36 | C19T | 3.44
37 | K4R | 4.01
38 | K4V | 3.66
39 | K4F | 3.52
40 | K4A | 2.87
41 | K4S | 3.14
42 | K4C | 3.75
43 | C16P | 4.48
44 | C16H | 2.71

Row | Variant | protein stability index
45 | H1Y | 3.16
46 | H1G | 3.68
47 | H1N | 4.13
48 | H1C | 3.85
49 | Q15M | 3.95
50 | Q15K | 3.25
51 | G17Y | 3.6
52 | G17F | 3.79
53 | P10S | 3.86
54 | P10I | 3.58
55 | P10M | 4.07
56 | P10C | 2.56
57 | G7Y | 3.55
58 | G7Q | 3.2
59 | G7T | 3.58
60 | G7M | 3.46
61 | G7S | 3.36
62 | K23D | 3.57
63 | K23L | 2.04
64 | K23Y | 3.12
65 | K23P | 2.43
66 | H11A | 3.42

Row | Variant | protein stability index
67 | H11R | 3.08
68 | H11E | 4.17
69 | H11N | 3.41
70 | H11D | 3.21
71 | C13T | 4.67
72 | C13I | 4.05
73 | C13S | 4.4
74 | C13R | 3.91
75 | C13M | 4.82
76 | P6K | 3.39
77 | P6E | 3.4
78 | P6D | 2.73
79 | P6F | 3.36
80 | P6I | 3.19
81 | P6Y | 3.94
82 | F20D | 4.04
83 | F20Y | 3.67
84 | F20V | 3.97
85 | F20S | 3.63
86 | F20H | 4.62

Variants of: B2
Test: as above
Settings: c terminus: a fixed tail appended

Row | Variant | protein stability index
87 | W22R | 5.82
88 | W22C | 5.1
89 | W22G | 5.53
90 | W22L | 5.25
91 | W22M | 5.53
92 | W22E | 5.67
93 | W22H | 5.45
94 | W22Q | 5.47
95 | W22S | 4.29
96 | W22P | 5.54
97 | W22I | 5.53
98 | W22T | 5.24
99 | W22K | 5.7
100 | W22A | 5.29
101 | W22Y | 5.6
102 | W22D | 5.42
103 | W22N | 5.83
104 | W22V | 5.12
105 | W22F | 5.38
106 | D23Y | 4.07
107 | D23F | 3.93

Row | Variant | protein stability index
108 | D23A | 4.65
109 | D23W | 3.59
110 | D23C | 1.98
111 | D23M | 2.32
112 | D23K | 2.47
113 | D23S | 1.78
114 | D23T | 1.05
115 | D23R | 2.13
116 | D23P | 4.76
117 | D23N | 4.15
118 | D23Q | 3.51
119 | D23L | 1.98
120 | D23G | 2.83
121 | D23V | 2.56
122 | D23I | 2.69
123 | D23H | 3.81
124 | D23E | 1.82
125 | E20Y | 4.92
126 | E20V | 4.32
127 | E20W | 4.5
128 | E20S | 4.88

Row | Variant | protein stability index
129 | E20T | 4.86
130 | S21M | 5.23
131 | S21C | 4.57
132 | S21Q | 5.22
133 | S21A | 5.05
134 | S21D | 5.1
135 | S21P | 5.24
136 | S21V | 4.84
137 | S21T | 3.57
138 | S21W | 4.34
139 | S21R | 4.82
140 | S21Y | 5.09
141 | S21H | 5.02
142 | S21L | 4.99
143 | S21N | 5.19
144 | S21G | 5.25
145 | S21E | 4.99
146 | S21F | 4.18
147 | S21I | 4.93
148 | S21K | 4.97
149 | S24A | 4.38

Row | Variant | protein stability index
150 | S24H | 3.97
151 | S24I | 4.26
152 | S24D | 4.54
153 | S24C | 4.07
154 | S24Y | 4.46
155 | S24W | 4.59
156 | S24R | 3.94
157 | S24L | 4.37
158 | S24G | 4.89
159 | S24K | 4.17
160 | S24N | 4.57
161 | S24Q | 3.84
162 | S24P | 4.99
163 | S24T | 4.58
164 | S24V | 4.62
165 | S24M | 4.34
166 | S24F | 4.38
167 | S24E | 3.93
